From patent publication US20040191303A1, “Use of selectin-binding pregnancy proteins, liposomes, native mucin fragments and mimetic compounds for the treatment and prophylaxis inflammatory diseases, for preventing metastatic spread and for the prophylaxis of tumour diseases” (priority 2000, published 2004) come the findings set out here.

Sequences and labels used below:
B1: Serum PP14: gestation protein pp14 from serum of pregnant women (protein, UniProt P09466 19-180, looked up)
Glycodelin: MDIPQTKQDLELPKLAGTWHSMAMATNNISLMATLKAPLRVHITSLLPTPEDNLEIVLHRWENNSCVEKKVLGEKTENPKKFKINYTVANEATLLDTDYDNFLFLCLQDTTTPIQSMMCQYLARVLVEDDEIMQGFIRAFRPLPRHLWYLLDLKQMEEPCRF
B2: Urinary PP14: gestation protein pp14 from urine of pregnant women (protein, UniProt P09466 19-180, looked up)
Glycodelin: MDIPQTKQDLELPKLAGTWHSMAMATNNISLMATLKAPLRVHITSLLPTPEDNLEIVLHRWENNSCVEKKVLGEKTENPKKFKINYTVANEATLLDTDYDNFLFLCLQDTTTPIQSMMCQYLARVLVEDDEIMQGFIRAFRPLPRHLWYLLDLKQMEEPCRF
B3: Amniotic ✓-fetoprotein: α-fetoprotein from the amniotic fluid (protein, UniProt P02771 19-609, looked up)
Alpha-fetoprotein: RTLHRNEYGIASILDSYQCTAEISLADLATIFFAQFVQEATYKEVSKMVKDALTAIEKPTGDEQSSGCLENQLPAFLEELCHEKEILEKYGHSDCCSQSEEGRHNCFLAHKKPTPASIPLFQVPEPVTSCEAYEEDRETFMNKFIYEIARRHPFLYAPTILLWAARYDKIIPSCCKAENAVECFQTKAATVTKELRESSLLNQHACAVMKNFGTRTFQAITVTKLSQKFTKVNFTEIQKLVLDVAHVHEHCCRGDVLDCLQDGEKIMSYICSQQDTLSNKITECCKLTTLERGQCIIHAENDEKPEGLSPNLNRFLGDRDFNQFSSGEKNIFLASFVHEYSRRHPQLAVSVILRVAKGYQELLEKCFQTENPLECQDKGEEELQKYIQESQALAKRSCGLFQKLGEYYLQNAFLVAYTKKAPQLTSSELMAITRKMAATAATCCQLSEDKLLACGEGAADIIIGHLCIRHEMTPVNPGVGQCCTSSYANRRPCFSSLVVDETYVPPAFSDDKFIFHKDLCQAQGVALQTMKQEFLINLVKQKPQITEEQLEAVIADFSGLLEKCCQGQEQEVCFAEEGQKLISKTRAALGV
B4: Serum ✓-fetoprotein: α-fetoprotein from the serum of pregnant women (protein, UniProt P02771 19-609, looked up)
Alpha-fetoprotein: RTLHRNEYGIASILDSYQCTAEISLADLATIFFAQFVQEATYKEVSKMVKDALTAIEKPTGDEQSSGCLENQLPAFLEELCHEKEILEKYGHSDCCSQSEEGRHNCFLAHKKPTPASIPLFQVPEPVTSCEAYEEDRETFMNKFIYEIARRHPFLYAPTILLWAARYDKIIPSCCKAENAVECFQTKAATVTKELRESSLLNQHACAVMKNFGTRTFQAITVTKLSQKFTKVNFTEIQKLVLDVAHVHEHCCRGDVLDCLQDGEKIMSYICSQQDTLSNKITECCKLTTLERGQCIIHAENDEKPEGLSPNLNRFLGDRDFNQFSSGEKNIFLASFVHEYSRRHPQLAVSVILRVAKGYQELLEKCFQTENPLECQDKGEEELQKYIQESQALAKRSCGLFQKLGEYYLQNAFLVAYTKKAPQLTSSELMAITRKMAATAATCCQLSEDKLLACGEGAADIIIGHLCIRHEMTPVNPGVGQCCTSSYANRRPCFSSLVVDETYVPPAFSDDKFIFHKDLCQAQGVALQTMKQEFLINLVKQKPQITEEQLEAVIADFSGLLEKCCQGQEQEVCFAEEGQKLISKTRAALGV
B5: Urinary ✓-fetoprotein: α-fetoprotein from urine (protein, UniProt P02771 19-609, looked up)
Alpha-fetoprotein: RTLHRNEYGIASILDSYQCTAEISLADLATIFFAQFVQEATYKEVSKMVKDALTAIEKPTGDEQSSGCLENQLPAFLEELCHEKEILEKYGHSDCCSQSEEGRHNCFLAHKKPTPASIPLFQVPEPVTSCEAYEEDRETFMNKFIYEIARRHPFLYAPTILLWAARYDKIIPSCCKAENAVECFQTKAATVTKELRESSLLNQHACAVMKNFGTRTFQAITVTKLSQKFTKVNFTEIQKLVLDVAHVHEHCCRGDVLDCLQDGEKIMSYICSQQDTLSNKITECCKLTTLERGQCIIHAENDEKPEGLSPNLNRFLGDRDFNQFSSGEKNIFLASFVHEYSRRHPQLAVSVILRVAKGYQELLEKCFQTENPLECQDKGEEELQKYIQESQALAKRSCGLFQKLGEYYLQNAFLVAYTKKAPQLTSSELMAITRKMAATAATCCQLSEDKLLACGEGAADIIIGHLCIRHEMTPVNPGVGQCCTSSYANRRPCFSSLVVDETYVPPAFSDDKFIFHKDLCQAQGVALQTMKQEFLINLVKQKPQITEEQLEAVIADFSGLLEKCCQGQEQEVCFAEEGQKLISKTRAALGV

The first experiment relates to activated HUVEC. Put plainly: Adhesion inhibition test: HepG2 hepatoma cells to IL-1β activated HUVEC. It is filed as cell-based, human. The conditions noted are these: HepG2 cell adhesion.
Protocol: The adhesion test described below is used in vitro to test the active substances.
HUVECs are isolated from veins of fresh human umbilical cords, used up to the 3rd passage, and cultured to confluence in 96-well titer plates for testing. Expression on HUVEC is induced by adding 0.2 ng of IL-1β per well, reaching its maximum after 4 hours. At this point, an adhesion test/adhesion inhibition test analogous to the one for immobilized E-selectin is performed.
The IC50 values (concentration of inhibiting agent for 50% inhibition of adhesion) are indicated.
Usually IC50 stands for the midpoint of a concentration-inhibition curve. Lower therefore signals inhibition by little substance. For the molecule sialyl-Lewis x [sLe^x], the midpoint of inhibition, the IC50, lay at 2300 µM.

For a further experiment, the system named is cell adhesion. Put plainly: Testing of gestation proteins from various sources as adhesion blocker. The format is cell-based.
Settings: not given
The text has this:
Testing of Gestation Proteins from Various Sources as Adhesion Blocker
The trophoblast culture line has been purchased and not subjected to genetic engineering.
In the case of “Serum Transferrin: transferrin from serum”, the Adhesion blocking entry was “No”.
For “Amniotic transferrin: transferrin recovered from the amniotic fluid”, the Adhesion blocking result is “Yes”.
In the case of B1, the Adhesion blocking result is on record as “Yes”.
Regarding B2, the Adhesion blocking entry is recorded as “Yes”.
In the case of B3, the Adhesion blocking entry was “Yes”.
Consider B4, for which the Adhesion blocking entry is reported as “Yes”.
On to B5, for which the Adhesion blocking entry is recorded as “No”.
